B1: Caprine Kobuvirus d30 (nucleic acid, listed as Kobuvirus sp.)
DNA: CTCTTTTCCGGTGGCCACGCCCGGGCCACCGATACTTCCCTTCACTCCTTCGGGACTGTTGGGGAGGAACACAACAGGGCTCCCCTGTTTTCCCATTCCTTCCCCCTTTTCCCAACCCCAACCGCCGTATCTGGTGGCGGCAAGACACACGGGTCTTTCCCTCTAAAGCACAATTGTGTGTGTGTCCCAGGTCCTCCTGCGTACGGTGCGGGAGTGCTCCCACCCAACTGTTGTAAGCCTGTCCAACGCGTCGTCCTGGCAAGACTATGACGTCGCATGTTCCGCTGCGGATGCCGACCGGGTAACCGGTTCCCCAGTGTGTGTAGTGCGATCTTCCAGGTCCTCCTGGTTGGCGTTGTCCAGAAACTGCTTCAGGTAAGTGGGGTGTGCCCAATCCCTACAAAGGTTGATTCTTTCACCACCTTAGGAATGCTCCGGAGGTACCCCAGCAACAGCTGGGATCTGACCGGAGGCTAATTGTCTACGGGTGGTGTTTCCTTTTTCTTTTCACACAACTCTACTGCTGACAACTCACTGACTATCCACTTGCTCTCTTGTGCCTTTCTGCTCTGGTTCAAGTTCCTTGATTGTTTTTGACTGCTTTTCACTGCTTTTCTTCTCACAATCCTTGCTCAGTTCAAAGTC
B2: Caprine Kobuvirus d40 (nucleic acid, listed as Kobuvirus sp.)
DNA: GTGGCCACGCCCGGGCCACCGATACTTCCCTTCACTCCTTCGGGACTGTTGGGGAGGAACACAACAGGGCTCCCCTGTTTTCCCATTCCTTCCCCCTTTTCCCAACCCCAACCGCCGTATCTGGTGGCGGCAAGACACACGGGTCTTTCCCTCTAAAGCACAATTGTGTGTGTGTCCCAGGTCCTCCTGCGTACGGTGCGGGAGTGCTCCCACCCAACTGTTGTAAGCCTGTCCAACGCGTCGTCCTGGCAAGACTATGACGTCGCATGTTCCGCTGCGGATGCCGACCGGGTAACCGGTTCCCCAGTGTGTGTAGTGCGATCTTCCAGGTCCTCCTGGTTGGCGTTGTCCAGAAACTGCTTCAGGTAAGTGGGGTGTGCCCAATCCCTACAAAGGTTGATTCTTTCACCACCTTAGGAATGCTCCGGAGGTACCCCAGCAACAGCTGGGATCTGACCGGAGGCTAATTGTCTACGGGTGGTGTTTCCTTTTTCTTTTCACACAACTCTACTGCTGACAACTCACTGACTATCCACTTGCTCTCTTGTGCCTTTCTGCTCTGGTTCAAGTTCCTTGATTGTTTTTGACTGCTTTTCACTGCTTTTCTTCTCACAATCCTTGCTCAGTTCAAAGTC
B3: Picornavirales sp. isolate RtMruf-PicoV (nucleic acid)
DNA: TTTGCTCAGCGTAACTTCTCCGGGTTACGTGGAGACCAAAAGGCTACGGAGACTCGGGCTACGGCCCTGGAGCACCTAGGTGCTCCTAAAGACGTTAGAAGTTGTACAAACTCGCCCAATAGGGCCCCCCAACCAGGGGGGTAGCGGGCAAGCACTTCTGTTTCCCCGGTATGATCTCATAGGCTGTACCCACGGCTGAAAGAGAGATTATCGTTACCCGCCTCACTACTTCGAGAAGCCCAGTAATGGTTCATGAAGTTGATCTCGTTGACCCGGTGTTTCCCCCACACCAGAAACCTGTGATGGGGGTGGTCATCCCGGTCATGGCGACATGACGGACCTCCCCGCGCCGGCACAGGGCCTCTTCGGAGGACGAGTGACATGGATTCAACCGTGAAGAGCCTATTGAGCTAGTGTTGATTCCTCCGCCCCCGTGAATGCGGCTAATCCCAACTCCGGAGCAGGCGGGCCCAAACCAGGGTCTGGCCTGTCGTAACGCGAAAGTCTGGAGCGGAACCGACTACTTTCGGGAAGGCGTGTTTCCTTTTGTTCCTTTTATCAAGTTTTATGGTGACAACTCCTGGTAGACGTTTTATTGCGTTTATTGAGAGATTTCCAACAATTGAACAGACTAGAACCACTTGTTTTATCAAACCCTCACAGAATAAGATAACA
B4: Caprine Kobuvirus d50 (nucleic acid, listed as Kobuvirus sp.)
DNA: CCGGGCCACCGATACTTCCCTTCACTCCTTCGGGACTGTTGGGGAGGAACACAACAGGGCTCCCCTGTTTTCCCATTCCTTCCCCCTTTTCCCAACCCCAACCGCCGTATCTGGTGGCGGCAAGACACACGGGTCTTTCCCTCTAAAGCACAATTGTGTGTGTGTCCCAGGTCCTCCTGCGTACGGTGCGGGAGTGCTCCCACCCAACTGTTGTAAGCCTGTCCAACGCGTCGTCCTGGCAAGACTATGACGTCGCATGTTCCGCTGCGGATGCCGACCGGGTAACCGGTTCCCCAGTGTGTGTAGTGCGATCTTCCAGGTCCTCCTGGTTGGCGTTGTCCAGAAACTGCTTCAGGTAAGTGGGGTGTGCCCAATCCCTACAAAGGTTGATTCTTTCACCACCTTAGGAATGCTCCGGAGGTACCCCAGCAACAGCTGGGATCTGACCGGAGGCTAATTGTCTACGGGTGGTGTTTCCTTTTTCTTTTCACACAACTCTACTGCTGACAACTCACTGACTATCCACTTGCTCTCTTGTGCCTTTCTGCTCTGGTTCAAGTTCCTTGATTGTTTTTGACTGCTTTTCACTGCTTTTCTTCTCACAATCCTTGCTCAGTTCAAAGTC
B5: Aichivirus A FSS693 (nucleic acid)
DNA: CACCCATACACCCCCACCCCCTTTTCTGTAACTCAAGTATGTGTGCTCGTAATCTTGACTCCCACGGAATGGATCGATCCGCTGGAGAACAAACTGCTAGATCCACATCCTCCCTCCCCTTGGGAGGACCTCGGTCCTCCCACATCCTCCCTCCAGCCTGACGTATCACAGGCTGTGTGAAGCCCCCGCGAAAGCTGCTCACGTGGCAATTGTGGGTCCCCCCTTCATCAAGACACCAGGTCTTTCCTCCTTAAGGCTAGCCCCGATGTGTGAATTCACATTGGGCAACTAGTGGTGTCACTGTGCGCTCCCAATCTCGGCCGCGGAGTGCTGTTCCCCAAGCCAAACCCCTGGCCCTTCACTATGTGCCTGGCAAGCATATCTGAGAAGGTGTTCCGCTGTGGCTGCCAGCCTGGTAACAGGTGCCCCAGTGTGCGTAACCTTCTTCCGTCTCCGGACGGTAGTGATTGGTTAAGATTTGGTGTAAGGTTCATGTGCCAACGCCCTGTGCGGGATGAAACCTCTACTGCCCTAGGAATGCCAGGCAGGTACCCCACCTTCGGGTGGGATCTGAGCCTGGGCTAATTGTCTACGGGTAGTTTCATTTCCAATTCTTTTATGCTGGAGTC
modifications: Aichivirus A
B6: Caprine Kobuvirus d20 (nucleic acid, listed as Kobuvirus sp.)
DNA: CCCCCTCACCCTCTTTTCCGGTGGCCACGCCCGGGCCACCGATACTTCCCTTCACTCCTTCGGGACTGTTGGGGAGGAACACAACAGGGCTCCCCTGTTTTCCCATTCCTTCCCCCTTTTCCCAACCCCAACCGCCGTATCTGGTGGCGGCAAGACACACGGGTCTTTCCCTCTAAAGCACAATTGTGTGTGTGTCCCAGGTCCTCCTGCGTACGGTGCGGGAGTGCTCCCACCCAACTGTTGTAAGCCTGTCCAACGCGTCGTCCTGGCAAGACTATGACGTCGCATGTTCCGCTGCGGATGCCGACCGGGTAACCGGTTCCCCAGTGTGTGTAGTGCGATCTTCCAGGTCCTCCTGGTTGGCGTTGTCCAGAAACTGCTTCAGGTAAGTGGGGTGTGCCCAATCCCTACAAAGGTTGATTCTTTCACCACCTTAGGAATGCTCCGGAGGTACCCCAGCAACAGCTGGGATCTGACCGGAGGCTAATTGTCTACGGGTGGTGTTTCCTTTTTCTTTTCACACAACTCTACTGCTGACAACTCACTGACTATCCACTTGCTCTCTTGTGCCTTTCTGCTCTGGTTCAAGTTCCTTGATTGTTTTTGACTGCTTTTCACTGCTTTTCTTCTCACAATCCTTGCTCAGTTCAAAGTC

The record followed here is US20230226096A1 (Orna Therapeutics, Inc., priority 2020, published 2023).

The data set concerns HEK293 cells. The data set is classed as cell-based, human. The following applies: luminescence from secreted Gluc in supernatant 24 hours after transfection of HEK293 cells; circular RNA encoding Gluc with the named IRES (UTR truncated to 675 nt).
Regarding B1, the Expression is listed as 1.87E+08.

B2: the Expression is 2.15E+08.

B3 showed an Expression of 2.26E+08.

Turning to B4, the Expression is recorded as 9.65E+07.

On to B5, for which the Expression was 6.25E+07.

Take B6: the Expression came to 2.00E+08.
